Changes are numbered by the printed parent chain.
T1: Cascade- (crRNA-free Cse1-Cse2-Cas7-Cas5-Cas6e) (Escherichia coli (K12; expressed in …, UniProt Q46901;P76632;Q46899;Q46898;Q46897 1-502;1-160;1-363;1-224;1-199)
T1 sequence 1: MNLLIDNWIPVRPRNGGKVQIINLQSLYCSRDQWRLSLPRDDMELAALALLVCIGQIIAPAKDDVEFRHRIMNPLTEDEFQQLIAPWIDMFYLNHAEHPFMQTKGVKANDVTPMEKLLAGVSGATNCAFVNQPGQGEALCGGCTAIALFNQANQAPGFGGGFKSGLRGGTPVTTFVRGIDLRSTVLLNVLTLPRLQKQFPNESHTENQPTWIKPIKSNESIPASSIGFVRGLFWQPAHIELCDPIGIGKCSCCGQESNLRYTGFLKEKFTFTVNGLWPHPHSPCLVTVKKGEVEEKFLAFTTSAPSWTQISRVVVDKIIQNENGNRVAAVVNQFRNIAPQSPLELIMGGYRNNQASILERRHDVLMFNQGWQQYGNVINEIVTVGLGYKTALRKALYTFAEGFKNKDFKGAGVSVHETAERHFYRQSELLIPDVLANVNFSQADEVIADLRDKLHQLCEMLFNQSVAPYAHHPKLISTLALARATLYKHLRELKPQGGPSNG
T1 sequence 2: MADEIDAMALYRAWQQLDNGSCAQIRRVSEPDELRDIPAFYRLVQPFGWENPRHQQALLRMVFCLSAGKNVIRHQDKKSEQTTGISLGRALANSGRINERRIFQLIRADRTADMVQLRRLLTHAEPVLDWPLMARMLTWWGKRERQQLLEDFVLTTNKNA
T1 sequence 3: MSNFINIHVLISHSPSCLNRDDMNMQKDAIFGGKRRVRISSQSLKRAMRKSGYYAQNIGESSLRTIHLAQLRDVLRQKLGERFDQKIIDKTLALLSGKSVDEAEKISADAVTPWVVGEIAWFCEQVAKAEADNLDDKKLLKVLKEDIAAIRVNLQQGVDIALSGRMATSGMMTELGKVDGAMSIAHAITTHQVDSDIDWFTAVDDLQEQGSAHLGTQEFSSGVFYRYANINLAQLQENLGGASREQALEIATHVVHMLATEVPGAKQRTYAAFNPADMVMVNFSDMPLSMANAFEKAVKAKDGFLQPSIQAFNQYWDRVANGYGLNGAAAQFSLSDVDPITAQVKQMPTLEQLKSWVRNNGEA
T1 sequence 4: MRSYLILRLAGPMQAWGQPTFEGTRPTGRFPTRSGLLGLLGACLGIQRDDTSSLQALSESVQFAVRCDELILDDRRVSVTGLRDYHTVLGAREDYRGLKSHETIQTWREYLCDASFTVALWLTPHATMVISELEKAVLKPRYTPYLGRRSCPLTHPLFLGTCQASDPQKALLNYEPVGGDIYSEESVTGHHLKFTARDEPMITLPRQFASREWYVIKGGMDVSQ
T1 sequence 5: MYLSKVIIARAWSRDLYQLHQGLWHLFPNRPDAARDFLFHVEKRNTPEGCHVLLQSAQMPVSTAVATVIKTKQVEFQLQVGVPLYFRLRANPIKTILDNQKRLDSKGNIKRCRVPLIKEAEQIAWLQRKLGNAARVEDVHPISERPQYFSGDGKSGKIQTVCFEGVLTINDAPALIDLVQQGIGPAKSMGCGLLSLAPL

B1: crRNA11 (-8/+18) (ssRNA)
RNA: AUAAACCGCUGUCUUUCGCUGCUGAGGGUGACGAUCCGCCGAGUUCCCCGCGCCAGCG
B2: crRNA2 + g8 dsDNA (mixed)
RNA: AUAAACCGCUGUCUUUCGCUGCUGAGGGUGACGAUCCGCCGAGUUCCCCGCGCCAGCGGGG
DNA 1: CAGGGAGTTAAAGGCCGCTTTTGCGGGATCGTCACCCTCAGCAGCGAAAGACAGCATCGGAACGAGGGTAGCAACGGCT
DNA 2: AGCCGTTGCTACCCTCGTTCCGATGCTGTCTTTCGCTGCTGAGGGTGACGATCCCGCAAAAGCGGCCTTTAACTCCCTG
modifications: no 2',3'-cyclic phosphate on crRNA
B3: crRNA7 (-6/+5) + g8 dsDNA (mixed)
RNA: AAACCGCUGUCUUUCGCUGCUGAGGGUGACGAUCCGCCGAGUU
DNA 1: B2 DNA 1
DNA 2: B2 DNA 2
B4: poly-C handle crRNA + g8 dsDNA (mixed)
RNA: CCCCCCCCCUGUCUUUCGCUGCUGAGGGUGACGAUCCGCCGAGUU
DNA 1: B2 DNA 1
DNA 2: B2 DNA 2
B5: poly-A handle crRNA9 + g8 dsDNA (mixed)
RNA: AAAAAAAACUGUCUUUCGCUGCUGAGGGUGACGAUCCGCCGAGUU
DNA 1: B2 DNA 1
DNA 2: B2 DNA 2
B6: crRNA7 (-7/+5) + g8 dsDNA (mixed)
RNA: UAAACCGCUGUCUUUCGCUGCUGAGGGUGACGAUCCGCCGAGUU
DNA 1: B2 DNA 1
DNA 2: B2 DNA 2
B7: crRNA7 (-8/+1U) + g8 dsDNA (mixed)
RNA: AUAAACCGCUGUCUUUCGCUGCUGAGGGUGACGAUCCGCCU
DNA 1: B2 DNA 1
DNA 2: B2 DNA 2
B8: crRNA2 (-8/+21), no cyclic phosphate (structured_RNA)
RNA: B2 RNA
modifications: no 2',3'-cyclic phosphate
B9: crRNA7 (-8/+1C) + g8 dsDNA (mixed)
RNA: B7 RNA with U41C
DNA 1: B2 DNA 1
DNA 2: B2 DNA 2
B10: crRNA7 (-8/+1A) + g8 dsDNA (mixed)
RNA: B7 RNA with U41A
DNA 1: B2 DNA 1
DNA 2: B2 DNA 2
B11: crRNA7 (-8/+1G) + g8 dsDNA (mixed)
RNA: B7 RNA with U41G
DNA 1: B2 DNA 1
DNA 2: B2 DNA 2
B12: crRNA12 (-8/+11) (ssRNA)
RNA: AUAAACCGCUGUCUUUCGCUGCUGAGGGUGACGAUCCGCCGAGUUCCCCGC

How the values were obtained:
Cascade- (crRNA-free …) [1] = target: T1, Cascade- (crRNA-free …); test: EMSA; detectable binding; EMSA: 20 mM Tris-HCl pH 8, 20 mM NaCl, 10 nM 32P probe, 30 min at 30 or 37 C, 6% native PAGE; loading 10 min at 30 C with crRNA (0.5 uM in Fig 3). Kd values are printed only in Fig 5A (not in the material); conditions: protein: recombinant; tags: N-terminal 6His on Cse1 (CasA); copies: 1;2;6;1;1; label: 5'-32P
Cascade- (crRNA-free …) [2] = target: T1, Cascade- (crRNA-free …); test: EMSA; EMSA: 20 mM Tris-HCl pH 8, 20 mM NaCl, 10 nM 32P probe, 30 min at 30 or 37 C, 6% native PAGE; loading 10 min at 30 C with crRNA (0.5 uM in Fig 3). Kd values are printed only in Fig 5A (not in the material); conditions: protein: recombinant, tags: N-terminal 6His on Cse1 (CasA), copies: 1;2;6;1;1
[3] = label: DNA 5'-32P, guide + blunt duplex

| Binder | binding result (Cascade- (crRNA-free …) [2]; [3]) | further results |
| --- | --- | --- |
| AUAAACCGCUGUCUUUCGCUGCUGAGGGUGACGAUCCGCCGAGUUCCCC (ssRNA) [crRNA13 (-8/+9)] | – | binding result (Cascade- (crRNA-free …) [1]): binds |
| B1 | – | binding result (Cascade- (crRNA-free …) [1]): binds |
| B2 | binds | – |
| B3 | no binding | – |
| B4 | no binding | – |
| B5 | no binding | – |
| B6 | no binding | – |
| B7 | binds | – |
| B8 | – | binding result (Cascade- (crRNA-free …) [2]; label: 5'-32P, 3' handle hairpin): binds |
| B9 | binds | – |
| B10 | binds | – |
| B11 | binds | – |
| B12 | – | binding result (Cascade- (crRNA-free …) [1]): binds |

From PMC4288178, “CRISPR RNA binding and DNA target recognition by purified Cascade complexes from Escherichia coli”
